Patent publication US20220112288A1 (published 2022)
Changes are numbered by the printed parent chain.

B1: 75110_01H18A (antibody, V domains shown)
VH: QVQLQQWGAGLLKPSETLSLTCAVYGGSFSGYYWSWIRQSPGKGLEWIGEINQSGSTNYNPSLKSRVTISVDTSKNQFSLKLSSVTAADTAVYYCARVINWFDSWGQGTLVTVSS
VL: DIQMTQSPSSVSASVGDRVTITCRASQGISSWLAWYQQKPGKAPKLLIYAASSFQSGVPSRFSGSGSGTDFTLTISSLQTEDFATYYCQQANSFPYTFGQGTRLEIK
notes: Tested as antibody purified from AlivaMab Mouse hybridoma supernatant (captured by anti-mouse IgG Fc)
B2: 75110_03C01A (antibody, V domains shown)
VH: B1 VH with N76D, T109S
VL: B1 VL with K42N, A50D, R103K
notes: as for B1
B3: 75110_02K11A (antibody, V domains shown)
VH: QVQLQESGPGLVKPSQTLSLTCTVSGGSISSGFYYWTWIRQHPGKGLEWIGYISYSGNTYYNPSFKSRLTISVDTSKSQFSLKLSSVTAADTAVYYCARDRPSNFDAFDIWGQGTMVTVSS
VL: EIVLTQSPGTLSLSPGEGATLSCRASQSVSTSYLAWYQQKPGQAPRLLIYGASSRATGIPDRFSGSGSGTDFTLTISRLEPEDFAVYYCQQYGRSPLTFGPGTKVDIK
notes: as for B1
B4: 75110_04F22A (antibody, V domains shown)
VH: EVQLVESGGGLVQPGGSLRLSCAASGFTFSSYDIHWVRQATGKGLEWVSTIGTAGDTYYPGSVKGRFTISRENAKNSLYLQMNSLRAGDTAVYYCARGGYYYYGMDVWGQGTTVTVSS
VL: EIVLTQSPGTLSLSPGERATLSCRASQSVYSSYLAWYQQKPGQAPRLLIYGASSRATGIPDRFSGSGSGTDFTLTISRLEPEDFAVYYCQQFGTSPFTFGPGTKVDIK
notes: as for B1
B5: 75110_04G16A (antibody, V domains shown)
VH: B3 VH with G27D, F33Y, T37S, N58S, F65L, D74N, S78N, V87L
VL: B4 VL with Y30G, S32T, S53F, F92Y, T94S, F97L
notes: as for B1
B6: 75110_02I18A (antibody, V domains shown)
VH: B4 VH with L4V, I34M
VL: B4 VL with Y30S, A44S, Y50H, F63V, F92Y, T94S
notes: as for B1
B7: 75110_04P06A (antibody, V domains shown)
VH: B4 VH with S31N, I34M, Y100D
VL: B4 VL with G9D, V29L, Y30S, S32V, S77N, A85V, F92Y, T94S
notes: as for B1
B8: 75110_01E08A (antibody, V domains shown)
VH: B4 VH with S30N, S31N, I34M, G61A, S70Y, Y100D
VL: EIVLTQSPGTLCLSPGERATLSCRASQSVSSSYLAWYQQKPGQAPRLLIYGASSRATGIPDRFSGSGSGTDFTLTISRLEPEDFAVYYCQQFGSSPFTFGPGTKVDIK
notes: as for B1
B9: 75110_01K10A (antibody, V domains shown)
VH: B4 VH with G10A, S30R, S31N, I34M, Y100D
VL: B4 VL with G9D, V29L, Y30S, S32V, S66T, F92Y, T94S
notes: as for B1
B10: 75110_01G11A (antibody, V domains shown)
VH: B4 VH with I34M, K75R, Y79F, Y100D
VL: B4 VL with S14F, S28N, V29T, S54N, F92H
notes: as for B1
B11: 75110_01N04A (antibody, V domains shown)
VH: B4 VH with S31N, I34M, Y100D, Y101F, M105L
VL: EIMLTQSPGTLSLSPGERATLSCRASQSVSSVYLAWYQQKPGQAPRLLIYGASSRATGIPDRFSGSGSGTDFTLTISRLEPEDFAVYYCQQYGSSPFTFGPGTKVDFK
notes: as for B1
B12: 75110_05F19A (antibody, V domains shown)
VH: B4 VH with S31N, I34V, A40P, Y101D, M105L
VL: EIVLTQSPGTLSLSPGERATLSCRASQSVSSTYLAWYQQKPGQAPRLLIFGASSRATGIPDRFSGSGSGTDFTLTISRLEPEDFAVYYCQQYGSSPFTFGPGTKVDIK
notes: as for B1
B13: 75110_01J17A (antibody, V domains shown)
VH: B4 VH with I34M, A40G, G55D, K75E, Y100D
VL: B4 VL with T5A, S31I, S77T, T94S, I107F
notes: as for B1
B14: 75110_02I16A (antibody, V domains shown)
VH: QVQLQQWGAGLLKPSETLSLTCDVYGGSFSGYYWTWIRQPPGKGLEWIGEINHSGTTNSNPSLKSRVTISVDTSKSQFSLRLSSVTAADTAVYFCTRELNWFDPWGQGTLVTVSS
VL: DIQMTQSPSSVSASVGDRVTITCRASQDIANWLAWYQQKPGKAPQLLIYAASSLLGGVPSRFSGSGSGADFTLTISSLHPEDFATYYCQQANSFPYTFGQGTKLEIK
notes: as for B1
B15: 75110_04G02A (antibody, V domains shown)
VH: not shown
VL: DIVMTQSPDSLAVSLGERATINCKSSQSVLYSSNNKNYLAWYQQKPGQPPKLLFYWASARESGVPDRFSGSGSGTDFTLTISSLQAEDVALYYCQQYFGSFPTFGQGTKLEIK
notes: as for B1
B16: 75110_02E08A (antibody, V domains shown)
VH: QVQLQESGPGLVKPSETLSLTCTVSGGSISTYYWTWIRQPAGKGLEWIGRVYTSGDTNYNPSLKSRVAMSLDTSKNQFSLKLSSVTAADTAVYYCARDSGALYSWNYGDAFDIWGQGTMVTVSS
VL: DIQMTQSPSAMSASVGDRVTITCRASQDISNYLAWFQQKPGKVPKRLIYAASSLQSGVPSRFSGSGSGTEFTLTISSLQPEDFATYYCLQHNSYPRTFGQGTKVEIK
notes: as for B1
B17: 75110_04B08A (antibody, V domains shown)
VH: QVQLVESGGGVVQPGRSLRLSCTASGFNFINYGIHWVRQAPGKGLEWVTIIWYDGSKKYYADSVKGRFAISRDNSKNTLYLQMNSLRAEDTAVYYCAREDDWNDGLAYWGQGTLVTVSS
VL: AIQMTQSPSSLSASVGDRVTITCRASQDIRNDLGWYQQKPGKAPNLLIYAASNLQSGVPSRFSGSGSGTDFTLTISSLQPEDFATYYCLQDSNYPRTFGQGTKVEIK
notes: as for B1
B18: 75110_01L08A (antibody, V domains shown)
VH: QVQLQESGPGLVKPSETLSLTCTVSGGSISHYYWSWIRQPPGKGLEWIGYIHYSGTTNYNPSLKSRVTISVDTSKNQLSLKLRSVTAADTAVYYCARDQGFSSGGMDVWGQGTTVTVSS
VL: not shown
notes: as for B1
B19: 75110_02E22A (antibody, V domains shown)
VH: QVQLQESGPGLVKPSETLSLTCTVSGGSISSFYWSWIRQPAGKGLEWIGRIYTSGSTNYNPSLKSRVTMSVDTSKNQFSLKLSSVTAADTAVYYCARELEKRNYYGMDVWGQGTTVTVSS
VL: DIQMTQSPSSLSASVGDRVTITCQASHDISNYLNWYQQKPGKAPKLLIFDASTLETGVPSRFSGSGSGTYFTFTIRSLQPEDIATYYCQQYDSLPLTFGGGTKVEIK
notes: as for B1
B20: 75110_04D20A (antibody, V domains shown)
VH: B19 VH with G26N, S31D, F32Y, V67I, K81E, K101R, R102Y, N103Y, Y104F, M107V
VL: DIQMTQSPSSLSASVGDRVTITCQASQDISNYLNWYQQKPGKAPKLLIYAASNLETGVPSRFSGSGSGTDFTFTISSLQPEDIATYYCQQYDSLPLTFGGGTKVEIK
notes: as for B1
B21: 75110_04H17A (antibody, V domains shown)
VH: QVQLQESGPGLVKPSETLSLTCTVSGGSISTYYWSWIRQSAGKGLEWIGRIYTSERPNYNPSLKSRVTMSVDTSKNQFSLKLNSVSAADTAVYYCARELERPYYYGMDVWGQGTTVTVSS
VL: B19 VL with I2V, D17G, H27Q, F49Y, D50Y, T53N, Y70D, R76S, I83F, S93N
notes: as for B1
B22: 75110_03I08A (antibody, V domains shown)
VH: QVQLQESGPGLVKPSETLSLTCTVSGGSISSYYWSWIRQPPGKGLEWIGYIYYSGSTNYNPSLKSRVTISVDTSKNQFSLKLSSVTAADTAVYYCAREGEQWFYGLDVWGQGTTVTVSS
VL: EIVLTQSPGTLSLSPGERATLSCRASQSVSSTYLAWYQQKPGQAPRLLIYGSSSRATGIPDRFSGSGSGTDFTLTISRLEPEDFAVYYCQQYGNSFPITFGQGTRLEIK
notes: as for B1
B23: 75110_01J09A (antibody, V domains shown)
VH: EVQLVESGGGLVQPGGSLRLSCVASGFTFSSYWMSWVRQAPGKGLEWVANTKEDGSDKYYVDSVKGRFTICRDNAKNSLYLQMNSLRAEDTAVYYCAREGGQWLALDYWGQGTLVTVSS
VL: DIQMTQSPSSVSASVGDRVTINCRASQGISSWLAWYQQKPGKAPNLLIFGASSLQSGVPSRFSGSGFGTDFSLTITTLQPEDFATYHCQQANSFPWTFGQGTKVEIK
notes: as for B1
B24: 75110_03I23A (antibody, V domains shown)
VH: QVQLQESGPGLVKPSETLSLTCTASGGSITSYYWNWIRQPAGKGLEWIGRIYTSGSTNYNPSLKSRVTMSVDTSKNQFSLKLSSVTAADTAVYYCARDPGYSDAFNIWGQGTMVTVSS
VL: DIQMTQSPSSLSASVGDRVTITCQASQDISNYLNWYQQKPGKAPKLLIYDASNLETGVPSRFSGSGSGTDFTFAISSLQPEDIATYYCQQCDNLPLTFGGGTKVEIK
notes: as for B1

These binders were tested against T1, Recombinant human CD4 (R&D Systems, Cat. 10327-CD) (human, UniProt P01730 26-390, limits assumed) (assay: BLI Octet, mAb on anti-mouse Fc sensor, CD4 100/50/25 nM, 1:1 global fit;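 note: antibodies loaded at 10 µg/mL, an unrelated mouse-derived antibody served as internal reference control, association and dissociation phases fitted after Savitzky-Golay smoothing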).
T1 construct: Soluble analyte in the Octet assay

Kd [nM] | Response | koff [s⁻¹] | kon [M⁻¹ s⁻¹] | Binder
16 | 0.23 | 0.0016 | 99000 | B1
3 | 0.23 | 0.0004 | 140000 | B2
19 | 0.11 | 0.0014 | 74000 | B3
5.9 | 0.05 | 0.00021 | 35000 | B4
5.3 | 0.23 | 0.00047 | 89000 | B5
66 | 0.05 | 8.6e-05 | 1300 | B6
< 0.001 | 0.07 | < 1e-07 | 24000 | B7
0.26 | 0.14 | 2e-05 | 77000 | B8
< 0.001 | 0.05 | < 1e-07 | 23000 | B9
1.7 | 0.11 | 7.2e-05 | 42000 | B10
2.1 | 0.08 | 6.1e-05 | 28000 | B11
< 0.001 | 0.05 | < 1e-07 | 19000 | B12
2.8 | 0.09 | 0.00012 | 43000 | B13
3.5 | 0.22 | 0.0004 | 120000 | B14
16 | 0.17 | 0.0015 | 90000 | B15
2.2 | 0.11 | 0.00061 | 280000 | B16
17 | 0.25 | 0.0037 | 220000 | B17
4.1 | 0.19 | 0.0016 | 390000 | B18
50 | 0.16 | 0.0031 | 63000 | B19
8.9 | 0.14 | 0.0008 | 90000 | B20
0.25 | 0.15 | 1.8e-05 | 73000 | B21
8.8 | 0.14 | 0.0011 | 130000 | B22
130 | 0.12 | 0.0048 | 37000 | B23
< 0.001 | 0.18 | < 1e-07 | 80000 | B24
